Measurements as given in a protein production outcome set (Wang et al. 2014).
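Note: failed if final PepcDB status was selected cloned or expressed and not failed if soluble or beyond.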

Experiment: label from the status in PepcDB records
In the case of “MSTASYAFRDNLTMLRRNLLHARRYPSLTLNLLLTPVILLLLFVYVFGNVMSAGINGGHANRADYVDYLVPGILLLTVAMTSLGTAVAVCTDMTEGIMARFRTMAISRASVLIGHVIGSVLQTLMALVLVLGIGLAIGFRPDASPVEWIAAAALMALTSLAMTWLAVGIGLVSPNPEGASNIGTPLVMLPFLSSAFVPVDAMPGWFRWFAEYQPFSPLIETLRGLLLGSGIGTRNAVLAVAWCLGLSLLGYLWSKARFNREPRH”, the protein production is reported as “failed”.
With “MSTATLPHTVGKRLFRQTLLLALALSVVFSAVFTVVEYYRSKVSLNESVELLKKTHLDAITAALWSLDRQQIAAQIDGIHHYPFISYVAVVDQGGVVVESGTRSELFGDVRRIDLTATYNGRQVSLGSLYLEIDRQAIMRDALSTAAVTLLFQTLTITIVMLFTFMLFERQVTRHLAAAADYFTSFGFARVQQPLQLDKHRYGDEIDALVEAFNRMRESLAVAYQQQQGMLQAVRESEALLRAIARRIPNGGVWVVDTDGRYIMFEGSLVESLGLSGQEALGRMPGDLFGEPLADRLVGCYRLALAGGTLSEEIEYRERVLWIQFAPLEDEHGAVMAAVALGIDVTERRQAEAERREMLQRLGQAHKMEAVGRLAGGIAHDYNNKLTVILGYAHVLKLTGFQSKEAPEQLDQIIRAAEHSRDITRQLLAFTRSERVNPVRVDLNRLISQSSKSLTRLIGEDITLSHVAGADLWPVRIDPTQADQLLMNLVMNARDAIAGTGSVTIATSNVVLDRATVRHLQGASPGEYVLMTVSDTGCGMDPEVMEHIFEPFYTTKEMGKGTGLGLATVYGIVRQNGGAISVESEPGGGSVFSIYLPRFVGESHDVRRLGEVDETLPARTTLLVDDDDAVRDITALMLRRLGHTVITASDPDEAIHLCQQPGIVVDLILTDVIMPSMNGREMVRSILSHQKAAKVLYMSGYPADVVEGRGAVDADARLLSRLLKLK” the protein production was “failed”.
In the case of “MSTDDPRFAGIARLYGIEGLARLRAAHVAIVGIGGVGSWAAEAMARSGVGEISLFDMDDVCVSNSNRQLHALDTTVGRPKVEVMAERIRAINPDCVVHAVSDFVTRDTMAECITPDMDFVIDCIDSVNAKAALISWCKRRKIQMVTTGAAGGQIDPTLIQIADLNRTFNDPLASKVRSTLRRDYGFSRTPNRHYSVPCVFSTEQLRYPKPDGSICLEKKFIGDGVKLDCAGGFGAVMMVTATFGMIAATRAVDKLVAGTRRPSERAKPAAVTANQA”, the protein production is reported as “failed”.
With “MSTETIEIFNNSDEWANQLKHALSKGENLALLHGLTPDILDRIYAYAFDYHEKGNITDAEIYYKFLCIYAFENHEYLKDFASVCQPKKKYQQAYDLYKLSYNYFPYDDYSVIYRMGQCQIGAKNIDNAMQCFYHIINNCEDDSVKSKAQAYIELLNDNSEDNGLEHHHHHH” the protein production was “failed”.
For “MSTIFDTHWPWMGIGIACVLIILLFFTNTLRSDLRVNRWYDPFWLAWFSSTAYFIHNFEEYGIDLFGRHFEFPHLMTQTMHITPEISFFTMINIPLIWIAGPILAMMSKHRPVISLIMTGLMFTNALSHIVPLISSGMYTSGLFTSIVIFIPGSLWIYYIRFIKGNLRWSILIVSLIPPIITQGLLMLSILMYRNDFLNDTTVTVFELLNGCLFIIIAFIMEKSFKRKYKN”, the protein production was “failed”.
With “MSTKGTILVTGGAGYIGSHTAVELLAHGYDVVIADNLVNSKREAIARIEKITGKTPAFHETDVSDERALARIFDAHPITAAIHFAALKAVGESVAKPIEYYRNNLDSLLSLLRVMRERAVKRIVFSSSATVYGVPERSPIDETFPLSATNPYGQTKLMAEQILRDVEAADPSWRVATLRYFNPVGAHESGLIGEDPAGIPNNLMPYVAQVAVGKLEKLRVFGSDYPTPDGTGVRDYIHVVDLARGHIAALDALERRDASLTVNLGTGRGYSVLEVVRAFEKASGRAVPYELVARRPGDVAECYANPAAAAETIGWKAERDLERMCADHWRWQENNPRGFV” the protein production was “not failed”.
In the case of “MSTKSKIFLVLLVFCPLSFAAHWLGWGETTVFILAGLAIVPLAAFMGTATEEIAVVIGPNAGGLLNATFGNATELILAYIALKEGLIEVVKATLTGSIIGNLLLVMGFAVFLGGLRYKEQNFQPLAARLNASTMNLGVVAILLPTALQYTSTGVEETVLQNLSVAVAVVLIGVYLLSLVFSMGTHAYLYDVGVAENMEMPELGEDVSEPEPPTEEEKPNLWLWTGVLLVVTLGVAVESELLVGSLEVATESLGLTALFTGVIVLPIIGNAAEHATAVTVAMKDKMDLSMSVVMGSSLQIAFFVAPVLVIVGWAIGQPMDLNFNPFELVAVLVAVLIVNSISSDGTSNWLEGILLLATYAIVALAFFFHPTLV”, the protein production is reported as “failed”.
In the case of “MSTLKLFVHNHSSKGDQSFLKTITFAITHFTVAFTVAYLLTGDILIGSLIAMVEPAINTVAYFFHEKIWARHQRNTTANAMNLRQNTH”, the protein production is reported as “failed”.
With “MSTPSHLNAQPLVWGHGPRTFEVFLEPTCPYSVRAFNKLDDLLDEVGADNVTIKIRLQSQPWHLFSGVIVRCILAASTLPHGREQAHKVMQAVADHREEFEFTDHCSGPNMNATPQQIIERIERYSHVLLGAAFARPELQDVIKWHSKYARQNGIHVSPTFMVNGLVQPDLGSGDDVSVWAARIMA” the protein production was “failed”.
In the case of “MSTPSPALFFNTVNAYQRSAAIKAAVELNVFTAISQGIESSQSLAQKCQTSERGMRMLCDYLVIIGFMTKQAEGYRLTSDSAMFLDRQSKFYVGDAIEFLLSPMITNGFNDLTAAVLKGGTAISSEGTLSPEHPVWVQFAKAMSPMMANPAQLIAQLVNENKIEPLKVLDISASHGLFGIAVAQHNPNAEIFGVDWASVLEVAKENARIQGVASRYHTIAGSAFEVDYGNDYDLVLLPNFLHHFDVATCEQLLRKIKTALAVEGKVIVFDFIPNSDRITPPDAAAFSLVMLATTPNGDAYTFAEYESMFSNAGFSHSQLHSLPTTQQQVIVAYK”, the protein production is reported as “not failed”.
In the case of “MSTPTPDTDVEQVGLANTAFYEAMERGDFETLSSLWLTPADLGVDEEYHDPADAGVVSCVHPGWPVLSGRGEVLRSYALIMANTEYIQFFLTDVHVSVTGDTALVTCTENILSGGPPPDDSDELGPLVGQLVVATNVFRRTPDGWKLWSHHASPVLAETGAEEGDESPD”, the protein production is reported as “not failed”.
With “MSTRWLLLAAFAAGAALFSSFLKALFFAACLACAFRPLSRRLEAWRGPLVAAGLTTALAGMCLVIPVAVVGSLAAPQAVQGLAVLDGLRESNWFTSPEAQQLVDDIDARLRDLPGLEGGLRGLARNAAGILGTAARTALAGGVGLAGGALNAVLQGFIVLMLIFVFTAYARHIQRFALALLPMPRAMLDRCVTAFRGAVVGVLAGVVLVAAIQGVLCGIGFAVAGVPQAAFWGFIAAMVAPIPVVGTMAVWIPACAWLWFAGKTTAAIGLVLWSAIIVSGSDNILRPIFLKTGIEAPIALIFLAIICGLAAFGPMGLLLGPVLLALGLQLAREGLPGAPGVSGVSGAVEPRE” the protein production was “failed”.
With “MSTSAIDPVSFSLYAKDFTRFAQELGASFERYGFAVLSDYDLDQARIDAAVDSAKAFFALPVETKKQYAGVKGGARGYIPFGVETAKGADHYDLKEFWHMGRDLPPGHRFRAHMADNVWPAEIPAFKHDVSWLYNSLDGMGGKVLEAIATYLKLERDFFKPTVQDGNSVLRLLHYPPIPKDATGVRAGAHGDINTITLLLGAEEGGLEVLDRDGQWLPINPPPGCLVINIGDMLERLTNNVLPSTVHRVVNPPPERRGVPRYSTPFFLHFASDYEIKTLQNCVTAENPDRYPESITADEFLQQRLREIKLA” the protein production was “not failed”.
For “MSTSDSCYNTGYILRICAIAALGGILFGYDTAVISGAIGSLTSYFHLSPAETGWAVSCVVVGCVIGSFSAGYLSKRFGRKKSLMVSALLFTISAVGTSLSYTFTHFVIYRIIGGLAVGLAATVSPMYMSEVSPKNMRGRALSMQQFAIVFGQILIFYVNYKIASIAADTWLIELGWRYMFAAGIIPCILFCILVFLIPESPRWMMMIGREEETLKILTKISNEEHARHLLADIKTSLQNDQLNAHQKLNYRDGNVRFILILGCMIAMLQQVTGVNVMMYYAPIVLKDVTGSAQEALFQTIWIGVIQLIGSIIGAMIMDKMGRLSLMRKGTIGSIIGLLLTSWALYSQATGYFALFGMLFFMIFYALSWGVGAWVLISEIFPNRMRSQGMSISVGFMWMANFLVSQFFPMINENPYLLSHFHGAFPMWIFAICCIFSYFFICRYLPETKGISLEKMESVVLAKRRKKLQPIQTERYSD”, the protein production was “failed”.
In the case of “MSTSFTMIGGEGPNSYREHSKYQGALVIAAKEKINEAISTKLDIDFTSNLVNIADFGCSSGPNTFTAVQTLIDAVENKYKKESNIEGIEFQVFFNDSSNNDFNTLFKTLPPARLYFASGVPGSFFGRVLPKNSLHVGVSSYSLHFVSKVPKEIKDRDSLVWNKDIHCSGSSKEVVKLYLGQYKIDVGSFLTARAQELVSGGLLLLLGSCRPTGVQMFETVEGMMIDFIGSSLNEIANQGLIDQQKLDTFKLPIYAPNVDELKQIIEDNKCFTIEAFEKISHAKGEYPLDPEYLTSAFKVTVGGSVASLFGQDGMEKTYELVKEKTQEMLPQIAKAKPGMQYLIVLRRN”, the protein production is reported as “failed”.
With “MSTSLTIRLVAEADWPALHALDQIIWTKKNTPAEIQPLSLAAYQEKMKDETIFVAISGQQLAGFIEVHPPTSLAAHQKQWLLSIGVSPDFQDQGIGGSLLSYIKDMAEISGIHKLSLRVMATNQEAIRFYEKHGFVQEAHFKEEFYINGHYCDDYQYAYFIEK” the protein production was “not failed”.
With “MSTSPADTARYNRFVADLFGMMAYGELSAFERFSADARYSPTLHDRAVLGRIAVVEFRHYELVSARLEAMGIDAEDAMLPFQAAVDYFHSRTRPADWYESLMKAYVIDTVSADFYRAISRYVDAGTRDVIEQIQASDETTEVLRERLRSALADDPRLASRLALWGRRLLGEALTQAQRVSYEHAFLGSLIGGEDSAAAKELVSGLIAGLAEKHSKRMTQLGLTG” the protein production was “not failed”.
In the case of “MSTVETPVYVPRTVVHKFGGTSVADADCYRHVTRLLLAREETVQVTIVSAMKGVTDTLIALAEQAANHSPDWQVLWQQTRTRHCDAAQALLGEHAATLQDWLNTRFNELHEMLVALSVIGMLPSEVLDRLQGLGEVYSAQLLGHYLQSQGEDCVVLDARQVLVVSPGEFGAEVDWATSAQHLAHWRMQHPQRRVVVTGFVASDRTGRAITLGRNGSDYSGAIFAALFEADELHIWTDVDGVMSADPRVVPDAVQLDALSYDEACELAYFGAKVVHPQTMSPVMKRGVPIIIRNTFQPGHPGTRITADSVVSGSVKGLTLSPGLAVLNLEGTGLIGVPGTAERVFAALRNARLSVVMISQGSSEHSICCLVHQTEAERARDALLYAFAHELAIGHVQRVQLTNNISVLAAVGDGMAGHLGVAARLFESLRRAHVNILAIAQGSSERNISVAIDSQQATKALRAAHAAFWLSPQTFSIGVIGPGHVGEALLDQLCAAQQQLLSKANLDLRLRAIVSRRRMLLDERGLGSDWRHAFAAAPEAVDLDAFTAHLQAAHLPHAVIIDCSGSAEVADRYADWLAAGIHVVTPNKQAGSGPLHRYHAIRAAADASGARFRYEATVGAGLPVITTLRDLMDTGDSVTSIEGIFSGTLAWLFNKYDGSVPFSQLIAQARAMGYTEPDPRDDLSGVDVARKLVILARDAGRDISLEDVAVESLVPETLCQLSVADFMERLNEIDATFAERLAAAKQRGCVLRYVAQLSPGHVPSVSLIELPSDHAFVNLRLTDNVVQFTTRRYSENPLIVQGPGAGPEVTAAGVFADLLRVAAGEGARL”, the protein production is reported as “failed”.
In the case of “MSTVNGANIQSEEQHTGGCSAGCSGGSTGGSTDGSTGGNTQQGCSCDTHDEQRDGSVAAQTFGEEGPVKTLGRIGSKLVVLSGKGGVGKSTVAVNLAVGLARAGRKVGLLDVDVHGPSVPRLLGLTGTRPMIGEDAMYPVGWRNNLRVMSLGFFLPDPEQAVIWRGPVKMGLIRHFLTEVRWGDLDHLVVDCPPGTGDEPLSVLQLLGTDAQAVIVTTPQGVAVDDVRRSVGFCRELGNPILGIVENMGGYVCPKCGELTPLFPAGGGEALAAEQGVTFLGRIPLHPDLTSAGDAGRSLYEADAAHPIVRALAPIVERAAATLHASDIRHESTTGPQSEAAPGTGKTAATMPTAPTRNESCAPATNHPDTNGDTTMKIAIPVAGDVLCQHFGHCERFALIDVDPATGSVTGRNDVTPPPHEPGLLPVWLSEKGANLVIAGGMGARARALLEERGVKVLIGAPAAAPEAIVAAHMAGTLTLGANTCDH”, the protein production is reported as “failed”.
